According to article PMC9505709, “Valorization of Biomasses from Energy Crops for the Discovery of Novel Thermophilic Glycoside Hydrolases through Metagenomic Analysis” (International Journal of Molecular Sciences, 2022):

Biological target: Aglu1, α-glucosidase of family GH31 from an unknown hyperthermophilic archaeon (unknown hyperthermophilic archaeon (metagenome; family Sulfolobaceae, unclassified genus))
Test: SEC; gel filtration on Superose 6 10/300, isocratic 20 mM Tris HCl pH 8.0; markers thyroglobulin, apoferritin, BSA, cytochrome C; native mass 462 kDa against 80 kDa for the monomer

## Aglu1, α-glucosidase of family GH31 from an unknown hyperthermophilic archaeon (enzyme)
  stoichiometry N: 6
